Results published in article PMC9508356.

Biological target: biotinylated SARS-CoV-2 spike protein subdomain 1 (S1) (SARS-CoV-2) (UniProt P0DTC2)
Assay: BLI

Row | Substance | Kd | koff | kon
1 | recombinant human albumin ACE2 genetic fusion with FcRn null-binding albumin sequence (NB-ACE2) (from UniProt Q9BYF1-1 18-740) | 31.7 nM | 0.000209 s⁻¹ | 9640 M⁻¹ s⁻¹
2 | recombinant human albumin ACE2 genetic fusion with wild type albumin sequence (WT-ACE2) (from UniProt Q9BYF1-1 18-740) | 32.8 nM | 0.00028 s⁻¹ | 7860 M⁻¹ s⁻¹
